# In patent US20200268910A1 (SANFORD BURNHAM PREBYS MEDICAL DISCOVERY INSTITUTE, published 2020):
# Bridge positions count the residues as written; N and C are the ends. Ends that are not written are not given here. FAM = 5(6)-carboxyfluorescein; Ahx = NCCCCCC(=O)O
# B1: FAM-CSPGAK (peptide)
# peptide: {FAM-Ahx}-CSPGAK
# notes: also called linear CSPGAK
# B2: FAM-CPMTDNE (control peptide) (peptide)
# peptide: {FAM-Ahx}-CPMTDNE
# notes: Control peptide of the fluorescence anisotropy assay
# B3: FAM-UNO (cyclic, disulfide-bridged FAM-labeled CSPGAKVRC) (peptide)
# peptide: {FAM-Ahx}-CSPGAKVRC
# modifications: disulfide 1-9
# notes: Cyclic CX7C peptide from a phage library, used as a synthetic FAM-labeled peptide without reduction; also called FAM-labeled UNO
# How the values were obtained:
# [1] = target: mouse CD206 on peritoneal cells from 4T1 tumor-bearing mice (mouse) (UniProt Q61830); experiment: flow cytometry on peritoneal cells of 4T1 tumor mice; 10 µg/mL antibody, then FAM-UNO at 0.5 µg/mL
# [2] = target: T1, recombinant mouse macrophage mannose receptor rmMMR/CD206 (mouse, UniProt Q61830 20-1388, limits assumed); experiment: fluorescence anisotropy, in solution, 50 nM peptide and 1 µM protein
# T1 construct: Bought recombinant protein; also called mouse recombinant CD206; MRC1
# T1 sequence (looked up): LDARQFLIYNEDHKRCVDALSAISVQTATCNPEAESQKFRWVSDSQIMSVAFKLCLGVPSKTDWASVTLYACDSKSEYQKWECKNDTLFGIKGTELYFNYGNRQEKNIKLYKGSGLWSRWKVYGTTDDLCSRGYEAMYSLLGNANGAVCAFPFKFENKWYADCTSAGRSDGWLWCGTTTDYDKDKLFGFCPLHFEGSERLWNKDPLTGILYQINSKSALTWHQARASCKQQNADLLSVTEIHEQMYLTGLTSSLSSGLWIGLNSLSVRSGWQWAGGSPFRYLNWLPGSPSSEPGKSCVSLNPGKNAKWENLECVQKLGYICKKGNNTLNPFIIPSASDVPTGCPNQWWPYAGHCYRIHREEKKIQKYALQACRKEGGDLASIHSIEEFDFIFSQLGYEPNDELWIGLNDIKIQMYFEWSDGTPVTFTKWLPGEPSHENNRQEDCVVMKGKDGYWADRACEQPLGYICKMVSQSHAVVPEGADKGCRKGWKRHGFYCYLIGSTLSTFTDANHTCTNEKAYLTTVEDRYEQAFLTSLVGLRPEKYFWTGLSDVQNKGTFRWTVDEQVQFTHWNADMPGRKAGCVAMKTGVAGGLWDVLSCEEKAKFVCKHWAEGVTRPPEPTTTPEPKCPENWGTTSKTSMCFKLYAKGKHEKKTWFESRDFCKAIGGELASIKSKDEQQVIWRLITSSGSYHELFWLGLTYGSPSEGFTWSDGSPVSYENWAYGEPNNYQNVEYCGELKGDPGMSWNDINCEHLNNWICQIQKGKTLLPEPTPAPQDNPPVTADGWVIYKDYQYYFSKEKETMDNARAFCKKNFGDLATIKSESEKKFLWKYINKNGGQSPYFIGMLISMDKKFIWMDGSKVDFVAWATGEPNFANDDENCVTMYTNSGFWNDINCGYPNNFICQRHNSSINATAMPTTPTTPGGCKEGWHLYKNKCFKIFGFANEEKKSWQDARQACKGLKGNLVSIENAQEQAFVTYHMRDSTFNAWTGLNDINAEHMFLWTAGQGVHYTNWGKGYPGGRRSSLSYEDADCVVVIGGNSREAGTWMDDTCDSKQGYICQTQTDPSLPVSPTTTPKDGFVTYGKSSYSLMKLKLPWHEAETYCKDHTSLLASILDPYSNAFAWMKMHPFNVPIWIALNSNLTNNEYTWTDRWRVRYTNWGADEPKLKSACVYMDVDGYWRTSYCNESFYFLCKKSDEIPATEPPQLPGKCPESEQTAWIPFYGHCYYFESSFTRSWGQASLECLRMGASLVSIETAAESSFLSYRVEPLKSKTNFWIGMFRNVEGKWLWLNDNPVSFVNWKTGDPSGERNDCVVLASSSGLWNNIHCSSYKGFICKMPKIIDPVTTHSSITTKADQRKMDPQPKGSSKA
# Description: In all experiments, FA signal measurements were done under pseudo first-order conditions with 50 nM singly labelled FAM peptides and 1 μM proteins. […] Assays were carried out in kinetic mode in a total volume of 30 μl at 25° C. on the PHERAstar (BMG Labtech, Germany) microplate reader using an optical module with excitation and emission filters of 485 nm (slit 10 nm) and 520 nm (slit 10 nm), respectively. Dual emission detection mode allows simultaneous recording of intensities that are parallel (l) and perpendicular (1) to the plane of excitation light. Sensitivities of channels (G factor) were corrected with gain adjustment of the photomultiplier tubes (PMTs) using fluorescein as a standard. The background fluorescence (receptor and buffer components in the absence of fluorescent ligand) was subtracted independently from all intensity channels. FA signals at time t after initiation of binding reaction was calculated as parameters r(t) from the equation: […]
# [3] = target: recombinant mouse CD163 (mouse, UniProt Q2VLH6 39-1045, limits assumed); experiment: fluorescence anisotropy, in solution, kinetic mode
# Sequence of recombinant mouse CD163 (Q2VLH6 39-1045 limits assumed): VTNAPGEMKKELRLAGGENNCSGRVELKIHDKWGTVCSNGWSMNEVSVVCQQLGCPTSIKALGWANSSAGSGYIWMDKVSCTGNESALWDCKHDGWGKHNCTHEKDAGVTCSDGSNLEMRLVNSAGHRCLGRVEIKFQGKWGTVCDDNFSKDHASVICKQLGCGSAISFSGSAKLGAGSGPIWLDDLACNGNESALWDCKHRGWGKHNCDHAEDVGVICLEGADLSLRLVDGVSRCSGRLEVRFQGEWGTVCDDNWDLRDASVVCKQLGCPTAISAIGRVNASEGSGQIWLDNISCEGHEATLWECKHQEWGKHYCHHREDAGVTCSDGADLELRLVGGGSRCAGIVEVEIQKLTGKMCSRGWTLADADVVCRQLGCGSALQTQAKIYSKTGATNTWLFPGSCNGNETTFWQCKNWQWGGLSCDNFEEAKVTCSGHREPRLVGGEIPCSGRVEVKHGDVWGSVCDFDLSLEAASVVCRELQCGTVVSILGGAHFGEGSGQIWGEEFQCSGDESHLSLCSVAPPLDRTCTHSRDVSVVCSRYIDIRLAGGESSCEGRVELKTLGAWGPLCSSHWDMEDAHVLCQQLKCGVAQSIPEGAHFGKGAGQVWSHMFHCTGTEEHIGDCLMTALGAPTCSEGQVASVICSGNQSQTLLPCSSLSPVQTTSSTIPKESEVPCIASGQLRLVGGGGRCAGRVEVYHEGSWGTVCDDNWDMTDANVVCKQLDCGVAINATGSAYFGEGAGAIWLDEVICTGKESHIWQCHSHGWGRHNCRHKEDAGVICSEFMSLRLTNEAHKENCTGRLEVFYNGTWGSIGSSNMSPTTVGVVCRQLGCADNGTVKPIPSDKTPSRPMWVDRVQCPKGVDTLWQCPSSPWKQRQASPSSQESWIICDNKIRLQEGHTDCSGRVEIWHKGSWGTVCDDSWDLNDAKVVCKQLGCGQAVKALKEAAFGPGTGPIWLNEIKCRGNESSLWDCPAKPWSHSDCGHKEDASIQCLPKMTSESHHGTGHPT
# [4] = target: T1, recombinant mouse macrophage mannose …; experiment: fluorescence anisotropy, in solution, kinetic mode
# [5] = target: T2, recombinant human macrophage mannose receptor rhMMR/CD206 (human, UniProt P22897 19-1383, limits assumed); experiment: fluorescence anisotropy, in solution, kinetic mode
# T2 construct: Bought recombinant protein; also called human recombinant CD206; hCD206
# T2 sequence (looked up): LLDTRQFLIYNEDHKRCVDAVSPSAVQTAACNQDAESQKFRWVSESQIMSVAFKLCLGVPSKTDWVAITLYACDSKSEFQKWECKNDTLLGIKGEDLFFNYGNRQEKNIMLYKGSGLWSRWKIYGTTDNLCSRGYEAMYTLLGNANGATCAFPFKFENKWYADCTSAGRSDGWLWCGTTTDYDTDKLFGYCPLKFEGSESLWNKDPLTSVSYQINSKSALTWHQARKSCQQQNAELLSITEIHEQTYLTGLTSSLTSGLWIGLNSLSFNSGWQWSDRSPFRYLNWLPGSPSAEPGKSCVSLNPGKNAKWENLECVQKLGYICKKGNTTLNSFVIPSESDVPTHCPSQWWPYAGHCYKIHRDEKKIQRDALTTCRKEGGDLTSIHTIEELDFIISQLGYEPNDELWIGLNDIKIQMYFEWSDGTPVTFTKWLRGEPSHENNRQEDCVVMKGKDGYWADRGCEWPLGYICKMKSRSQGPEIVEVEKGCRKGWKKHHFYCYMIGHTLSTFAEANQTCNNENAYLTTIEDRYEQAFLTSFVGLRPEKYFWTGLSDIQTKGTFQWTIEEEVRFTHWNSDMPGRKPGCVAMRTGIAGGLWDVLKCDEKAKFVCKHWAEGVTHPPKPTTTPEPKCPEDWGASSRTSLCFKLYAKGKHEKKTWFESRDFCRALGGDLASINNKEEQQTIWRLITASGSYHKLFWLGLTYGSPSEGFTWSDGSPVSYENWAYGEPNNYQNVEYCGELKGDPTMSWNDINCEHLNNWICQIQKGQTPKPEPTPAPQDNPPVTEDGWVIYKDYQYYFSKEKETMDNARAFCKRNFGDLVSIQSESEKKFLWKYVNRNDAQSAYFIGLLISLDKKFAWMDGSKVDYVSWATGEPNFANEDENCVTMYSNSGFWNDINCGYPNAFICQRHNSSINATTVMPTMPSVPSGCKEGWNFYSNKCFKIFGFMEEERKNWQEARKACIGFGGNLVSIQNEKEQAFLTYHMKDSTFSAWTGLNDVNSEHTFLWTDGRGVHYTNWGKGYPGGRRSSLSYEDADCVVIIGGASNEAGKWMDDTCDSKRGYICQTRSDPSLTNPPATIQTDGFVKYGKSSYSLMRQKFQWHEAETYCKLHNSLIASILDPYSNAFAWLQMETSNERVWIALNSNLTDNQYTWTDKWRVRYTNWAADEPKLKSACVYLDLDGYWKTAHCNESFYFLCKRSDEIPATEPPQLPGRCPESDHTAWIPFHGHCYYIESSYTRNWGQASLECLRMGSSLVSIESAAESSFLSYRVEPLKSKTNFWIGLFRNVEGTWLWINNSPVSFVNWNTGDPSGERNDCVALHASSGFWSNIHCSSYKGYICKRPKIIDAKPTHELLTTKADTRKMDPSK
# [6] = target: T3, mouse CD206 on peritoneal cells from 4T1 tumor-bearing mice (mouse, UniProt Q61830 20-1456); experiment: flow cytometry on peritoneal cells, legend of FIG. 4D
# T3 construct: whole, on cells; Primary cells that carry many other proteins; also called MRC1; mannose receptor
# T3 sequence (looked up): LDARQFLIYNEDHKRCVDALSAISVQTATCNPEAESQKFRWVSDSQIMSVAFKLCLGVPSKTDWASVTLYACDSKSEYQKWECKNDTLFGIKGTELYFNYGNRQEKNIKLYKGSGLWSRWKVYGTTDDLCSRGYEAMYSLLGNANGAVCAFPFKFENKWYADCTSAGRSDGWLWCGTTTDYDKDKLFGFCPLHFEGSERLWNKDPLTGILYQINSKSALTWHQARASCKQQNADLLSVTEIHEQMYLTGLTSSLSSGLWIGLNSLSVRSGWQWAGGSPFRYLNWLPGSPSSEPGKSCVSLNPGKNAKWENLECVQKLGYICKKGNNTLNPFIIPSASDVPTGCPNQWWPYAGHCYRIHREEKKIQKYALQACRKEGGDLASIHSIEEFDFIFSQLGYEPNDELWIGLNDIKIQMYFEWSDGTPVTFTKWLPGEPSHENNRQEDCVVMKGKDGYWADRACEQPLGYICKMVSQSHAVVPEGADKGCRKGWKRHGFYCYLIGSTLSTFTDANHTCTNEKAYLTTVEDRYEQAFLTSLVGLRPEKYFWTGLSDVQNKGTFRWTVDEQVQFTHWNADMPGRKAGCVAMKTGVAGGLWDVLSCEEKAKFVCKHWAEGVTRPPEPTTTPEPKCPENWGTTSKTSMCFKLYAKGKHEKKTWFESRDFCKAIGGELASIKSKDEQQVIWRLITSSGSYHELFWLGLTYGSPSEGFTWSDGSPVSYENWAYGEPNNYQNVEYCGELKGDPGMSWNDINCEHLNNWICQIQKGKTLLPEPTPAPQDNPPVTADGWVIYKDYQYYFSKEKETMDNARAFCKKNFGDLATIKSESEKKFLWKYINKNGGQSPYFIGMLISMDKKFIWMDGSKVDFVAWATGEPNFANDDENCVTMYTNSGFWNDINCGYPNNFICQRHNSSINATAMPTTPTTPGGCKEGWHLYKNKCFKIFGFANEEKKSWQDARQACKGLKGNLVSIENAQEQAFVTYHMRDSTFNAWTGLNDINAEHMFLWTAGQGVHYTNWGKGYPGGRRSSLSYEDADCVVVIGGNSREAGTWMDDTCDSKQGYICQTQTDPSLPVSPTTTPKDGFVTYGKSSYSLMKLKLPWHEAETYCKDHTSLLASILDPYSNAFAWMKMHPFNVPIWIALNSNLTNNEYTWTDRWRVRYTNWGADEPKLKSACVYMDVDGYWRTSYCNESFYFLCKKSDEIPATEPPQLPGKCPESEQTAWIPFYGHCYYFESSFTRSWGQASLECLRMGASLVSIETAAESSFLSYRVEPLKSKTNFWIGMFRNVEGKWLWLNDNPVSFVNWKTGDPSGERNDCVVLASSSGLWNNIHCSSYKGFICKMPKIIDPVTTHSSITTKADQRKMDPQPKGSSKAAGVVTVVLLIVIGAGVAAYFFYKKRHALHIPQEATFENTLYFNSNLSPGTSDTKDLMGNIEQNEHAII
# Description: Mice were anesthetized and intraperitoneally injected with 5 mL of PBS+1% BSA, the abdomen was massaged to detach macrophages and the peritoneal fluid was collected. This procedure typically yielded 5-9×10⁶ cells. Cells were concentrated to 1 mL in the same peritoneal fluid. For FAM-peptide incubation, the peptides were incubated for 30 minutes at 4° C. For antibody incubation the cells were incubated with antibody for 1 h at 4° C. A647 Rat anti-CCR2 (Biolegend, CA, USA. Catalog number 150603) was incubated for 1 h at 4° C. at a dilution of 1/200. FAM-peptides were incubated at a concentration of 0.5 μg/mL, and Rat anti-CD206 (Bio-Rad, CA, USA. Product code MCA2235GA) was incubated at a concentration of 10 μg/mL. Binding of FAM-peptides was monitored with 488 nm channel and CCR2 labeling was assessed in the 647 nm channel using A647 Anti-CCR2 (Biolegend, CA, USA). After incubation of FAM-Peptides or antibodies, the cells were washed 3 times at 4° C. with PBS-Tby centrifugation at 250 g for 6 minutes, followed by flow cytometry analysis (Accuri, BD Biosciences, CA, USA).
# The effect of a blocking anti-CD206 antibody on FAM-UNO binding to peritoneal cells isolated from 4T1 tumor mice was studied. Flow cytometry experiments were performed by incubating FAM-peptide with the cells suspended in the peritoneal fluid; this i.p. fluid also contained glutathione (FIG. 24). […]
molecule,measurement,setting,value
"rat anti-CD206 antibody (Bio-Rad, product code MCA2235GA)",reduction of FAM-UNO binding,[1],25%
B1,binding result,[2],binds
same,binding result,[3],"no binding (tested: 50 nM FAM peptide, 1 µM protein)"
B2,binding result,[4],"no binding (tested: 50 nM FAM peptide, 1 µM protein)"
B3,binding result,[5],"no binding (tested: 100 nM FAM peptide, 0.4 µM protein)"
same,binding result,[6],binds
